# Reference: FireProtDB (doi:10.1021/bi00118a013)
# B1: Guanyl-specific ribonuclease T1 wild type, P00651 (protein)
# chain: MMYSKLLTLTTLLLPTALALPSLVERACDYTCGSNCYSSSDVSTAQAAGYQLHEDGETVGSNSYPHKYNNYEGFDFSVSSPYYEWPILSSGDVYSGGSPGADRVVFNENNQLAGVITHTGASGNNFVECT
# Settings: Aspergillus oryzae (strain ATCC 42149 / RIB 40), pH 7, Fluorescence, MOPS 30 mM, reversible: yes, whole UniProt chain shown
protein,measurement,setting,value
B1,denaturant m value,"25 °C, Urea",1.21 kcal/mol/M
same,denaturant midpoint (higher = more stable),"25 °C, Urea",5.3 M
same,Tm,Thermal,50.9 °C
same,unfolding enthalpy (van 't Hoff),Thermal,110 kcal/mol
